From US8821836B2, “SPARC binding peptides and uses thereof” (Abraxis BioScience, LLC, priority 2008, dated 2014)

T1: SPARC (Homo sapiens, UniProt P09486)
T1 sequence (P09486 18-303): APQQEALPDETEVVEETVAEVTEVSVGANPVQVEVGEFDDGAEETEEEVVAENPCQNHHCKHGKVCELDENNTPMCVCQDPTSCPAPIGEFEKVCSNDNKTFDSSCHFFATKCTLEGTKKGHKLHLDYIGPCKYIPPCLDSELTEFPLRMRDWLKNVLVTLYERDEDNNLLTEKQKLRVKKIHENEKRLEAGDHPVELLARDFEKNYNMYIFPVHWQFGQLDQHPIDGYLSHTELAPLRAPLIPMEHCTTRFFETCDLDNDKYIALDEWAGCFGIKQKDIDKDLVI


Target: T1, SPARC
Assay: scFv phage display screening and soluble scFv ELISA with SPARC as antigen
Assay type: binding
From the text: The overall strategy was to first, screen a human antibody phage display libraries by ELISA with SPARC as antigen.
At the start, HuScL-3® was screened four rounds (three rounds with acidic elution and one round with competitive elution) and 17 positive clones were selected by phage ELISA. […] After that, the binding specificity of the two unique antibodies was validated by soluble scFv ELISA.
Next, HuScL-2® was screened for three rounds (two rounds with trypsin-digestion elution and one round with competitive elution). In the end, 30 positive clones were selected by phage ELISA. According to the sequencing results, 29 clones shared one antibody sequence and the remaining one clone encoded another unique antibody. After that, the binding specificity of these two antibodies was validated by soluble scFv ELISA as well.

SPARC binding of scFv	Molecule
SPARC binding activity	ScFv 2-1: unique ScFv against SPARC from HuScL-2 library, among SEQ ID NOs: 113-116 (protein) scFv: EVQLLESGGGLVQPGGSLRLSCAASGFTFSSYAMSWVRQAPGKGLEWVSMITPLGSTTAYADSVKGRFTISRDNSKNTLYLQMNSLRAEDTAVYYCAKRAGVFDYWGQGTLVTVSSGGGGSGGGGSGGGGSTDIQMTQSPSSLSASVGDRVTITCRASQSISSYLNWYQQKPGKAPKLLIYRASTLQSGVPSRFSGSGSGTDFTLTISSLQPEDFATYYCQQNDSFPTTFGQGTKVEIKR
SPARC binding activity	ScFv 3-2: unique ScFv against SPARC from HuScL-3 library, among SEQ ID NOs: 113-116 (protein) scFv: EIVMTQSPGTLSLSPGDRATLSCRASQSVSGYLAWYQQKPGQAPRLLIYDASNRATGIPARFSGSGSGTDFTLTISSLQAEDVAVYYCQQYYSTLPTFGQGTKLEIKRSGGSTITSYNVYYTKLSSSGTQVQLVQSGGGVVQPGRPLKLSCAASGFTFSSYAMHWVRQAPGKGLEWVAVISYDGSNKYYADSVKGRFTISRDNSKNTLYLQMNSLRAEDTAVYYCARDLSWNDAFDIWGQGTMVTVSSAS
SPARC binding activity	ScFv 2-2: unique ScFv against SPARC from HuScL-2 library, among SEQ ID NOs: 113-116 (protein) scFv: EVQLLESGGGLVQPGGSLRLSCAASGFTFSSYAMSWVRQAPGKGLEWVSHIQGQGRATYYADSVKGRFTISRDNSKNTLYLQMNSLRAEDTAVYYCAKTHGKFDYWGQGTLVTVSSGGGGSGGGGSGGGGSTDIQMTQSPSSLSASVGDRVTITCRASQSISSYLNWYQQKPGKAPKLLIYRASRLQSGVPSRFSGSGSGTDFTLTISSLQPEDFATYYCQQPSGVPTTFGQGTKVEIK
